Patent US20210032299A1 (Eli Lilly, published 2021)
Where a chain is given by its changes, count along the chain named. Starred links: 1 amine or outer side, 2 acyl side, 3 side chain; linkers in the order of their positions; H or OH if unused. Non-standard residues stand in square brackets, D forms with d. Groups on a side chain read outwards from the residue. No end group written: not given here. *: point of attachment. C20 diacid = O=C(O)CCCCCCCCCCCCCCCCCCC(=O)*; γGlu = O=C(O)[C@H](CCC(=O)[*:2])N[*:1]; 4Pal = N[C@@H](Cc1ccncc1)C(=O)O; αMeL = CC(C)C[C@](C)(N)C(=O)O; AEEA = NCCOCCOCC(=O)O; Aib = CC(C)(N)C(=O)O

B1: Example 3 (peptide)
peptide: Y[Aib]EGTFISDYSI[αMeL]LDKK([AEEA-AEEA-γGlu-C20 diacid])HQ[Aib]DFVE[4Pal]LLEAGPSSGAPPPS-NH2
modifications: N-terminus assumed
SMILES: CC[C@H](C)[C@H](NC(=O)[C@H](Cc1ccccc1)NC(=O)[C@@H](NC(=O)CNC(=O)[C@H](CCC(=O)O)NC(=O)C(C)(C)NC(=O)[C@@H](N)Cc1ccc(O)cc1)[C@@H](C)O)C(=O)N[C@@H](CO)C(=O)N[C@@H](CC(=O)O)C(=O)N[C@@H](Cc1ccc(O)cc1)C(=O)N[C@@H](CO)C(=O)N[C@H](C(=O)N[C@@](C)(CC(C)C)C(=O)N[C@@H](CC(C)C)C(=O)N[C@@H](CC(=O)O)C(=O)N[C@@H](CCCCN)C(=O)N[C@@H](CCCCNC(=O)COCCOCCNC(=O)COCCOCCNC(=O)CC[C@H](NC(=O)CCCCCCCCCCCCCCCCCCC(=O)O)C(=O)O)C(=O)N[C@@H](Cc1c[nH]cn1)C(=O)N[C@@H](CCC(N)=O)C(=O)NC(C)(C)C(=O)N[C@@H](CC(=O)O)C(=O)N[C@@H](Cc1ccccc1)C(=O)N[C@H](C(=O)N[C@@H](CCC(=O)O)C(=O)N[C@@H](Cc1ccncc1)C(=O)N[C@@H](CC(C)C)C(=O)N[C@@H](CC(C)C)C(=O)N[C@@H](CCC(=O)O)C(=O)N[C@@H](C)C(=O)NCC(=O)N1CCC[C@H]1C(=O)N[C@@H](CO)C(=O)N[C@@H](CO)C(=O)NCC(=O)N[C@@H](C)C(=O)N1CCC[C@H]1C(=O)N1CCC[C@H]1C(=O)N1CCC[C@H]1C(=O)N[C@@H](CO)C(N)=O)C(C)C)[C@@H](C)CC
B2: Example 8 (peptide)
peptide: Y[Aib]EGTFISDYSILLDKK([AEEA-AEEA-γGlu-C20 diacid])AQ[Aib]DFVNWLLAQGPSSGAPPPS-NH2
modifications: N-terminus assumed
SMILES: CC[C@H](C)[C@H](NC(=O)[C@H](CO)NC(=O)[C@H](Cc1ccc(O)cc1)NC(=O)[C@H](CC(=O)O)NC(=O)[C@H](CO)NC(=O)[C@@H](NC(=O)[C@H](Cc1ccccc1)NC(=O)[C@@H](NC(=O)CNC(=O)[C@H](CCC(=O)O)NC(=O)C(C)(C)NC(=O)[C@@H](N)Cc1ccc(O)cc1)[C@@H](C)O)[C@@H](C)CC)C(=O)N[C@@H](CC(C)C)C(=O)N[C@@H](CC(C)C)C(=O)N[C@@H](CC(=O)O)C(=O)N[C@@H](CCCCN)C(=O)N[C@@H](CCCCNC(=O)COCCOCCNC(=O)COCCOCCNC(=O)CC[C@H](NC(=O)CCCCCCCCCCCCCCCCCCC(=O)O)C(=O)O)C(=O)N[C@@H](C)C(=O)N[C@@H](CCC(N)=O)C(=O)NC(C)(C)C(=O)N[C@@H](CC(=O)O)C(=O)N[C@@H](Cc1ccccc1)C(=O)N[C@H](C(=O)N[C@@H](CC(N)=O)C(=O)N[C@@H](Cc1c[nH]c2ccccc12)C(=O)N[C@@H](CC(C)C)C(=O)N[C@@H](CC(C)C)C(=O)N[C@@H](C)C(=O)N[C@@H](CCC(N)=O)C(=O)NCC(=O)N1CCC[C@H]1C(=O)N[C@@H](CO)C(=O)N[C@@H](CO)C(=O)NCC(=O)N[C@@H](C)C(=O)N1CCC[C@H]1C(=O)N1CCC[C@H]1C(=O)N1CCC[C@H]1C(=O)N[C@@H](CO)C(N)=O)C(C)C
B3: Example 1 (peptide)
peptide: YXEGTFISDYSILLDKKAQXDFVNWLLAQGPSSGAPPPS
modifications: D-Ala2; K17((2-[2-(2-Amino-ethoxy)-ethoxy]-acetyl)2-(γ-Glu)-CO-(CH2)18-CO2H); Aib20; C-terminal amide
B4: Example 9 (peptide)
peptide: B3 peptide with A18H
modifications: D-Ala2; K17((2-[2-(2-Amino-ethoxy)-ethoxy]-acetyl)2-(γ-Glu)-CO-(CH2)18-CO2H); Aib20; C-terminal amide
B5: Example 2 (peptide)
peptide: B3 peptide
modifications: D-Ala2; K17((2-[2-(2-Amino-ethoxy)-ethoxy]-acetyl)2-(γ-Glu)-CO-(CH2)16-CO2H); Aib20; C-terminal amide

Each binder was assayed against human glucagon receptor (human, UniProt P47871 26-477) (assay: cell-based or functional assay).
Sequence of human glucagon receptor (P47871 26-477): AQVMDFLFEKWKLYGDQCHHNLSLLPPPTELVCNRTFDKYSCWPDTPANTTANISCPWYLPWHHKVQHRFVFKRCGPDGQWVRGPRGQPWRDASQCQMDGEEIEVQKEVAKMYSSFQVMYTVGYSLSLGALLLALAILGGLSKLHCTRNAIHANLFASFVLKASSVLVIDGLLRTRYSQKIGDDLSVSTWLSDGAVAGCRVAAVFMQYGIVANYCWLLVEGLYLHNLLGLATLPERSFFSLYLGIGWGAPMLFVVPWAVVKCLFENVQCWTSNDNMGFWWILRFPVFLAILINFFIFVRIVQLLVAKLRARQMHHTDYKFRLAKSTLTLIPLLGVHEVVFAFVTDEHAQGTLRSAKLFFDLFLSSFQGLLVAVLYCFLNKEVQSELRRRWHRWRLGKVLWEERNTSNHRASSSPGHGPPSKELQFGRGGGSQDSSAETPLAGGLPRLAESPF

How did the “hGcgR cAMP Rel EC50” value turn out when YAEGTFISDYSIAMDKIHQQDFVNWLLAQKGKKNDWKHNITQ-NH2 (ligand) [GIP(1-42)-NH2] was run?
The value was greater than 5000 nM.

With B1 as the binder, how does the “hGcgR cAMP Rel EC50” value read?
Its value is 1250 nM.

B2 was tested. Which “hGcgR cAMP Rel EC50” value did it give?
Its value is 295 nM.

B3 was tested. Which “hGcgR cAMP Rel EC50” value did it give?
Its value is 575 nM.

How did the “hGcgR cAMP Rel EC50” value turn out when B4 was run?
Its value is greater than 5000 nM.

Which “hGcgR cAMP Rel EC50” value does the source give for B5 here?
The value was 608 nM.

These binders were tested against T1, human glucose-dependent insulinotropic peptide receptor (human, UniProt P48546 22-466) (assay: cell-based or functional assay).
T1 sequence (looked up): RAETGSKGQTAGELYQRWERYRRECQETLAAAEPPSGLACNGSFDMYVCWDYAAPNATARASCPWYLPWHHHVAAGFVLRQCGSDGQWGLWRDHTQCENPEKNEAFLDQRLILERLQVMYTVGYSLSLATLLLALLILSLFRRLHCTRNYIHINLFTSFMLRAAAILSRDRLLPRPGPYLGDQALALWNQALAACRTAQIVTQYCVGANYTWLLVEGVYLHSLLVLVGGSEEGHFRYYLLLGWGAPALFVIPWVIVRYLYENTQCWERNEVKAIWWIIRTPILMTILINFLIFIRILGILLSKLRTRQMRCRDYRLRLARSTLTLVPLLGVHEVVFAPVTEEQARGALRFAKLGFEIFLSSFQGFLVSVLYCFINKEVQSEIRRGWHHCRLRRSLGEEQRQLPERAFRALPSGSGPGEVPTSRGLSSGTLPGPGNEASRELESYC

With B1 as the binder, how does the “hGIPR cAMP Rel EC50” value read?
Its value is 0.0178 nM.

How did the “hGIPR cAMP Rel EC50” value turn out when B2 was run?
Its value is 0.0268 nM.

How did the “hGIPR cAMP Rel EC50” value turn out when B3 was run?
The value was 0.0476 nM.

B4 was tested. Which “hGIPR cAMP Rel EC50” value did it give?
The value was 0.165 nM.

How did the “hGIPR cAMP Rel EC50” value turn out when B5 was run?
Its value is 0.0123 nM.

These binders were tested against human GLP-1 receptor (human, UniProt P43220 24-463) (assay: cell-based or functional assay).

With B1 as the binder, how does the “hGLP1R cAMP Rel EC50” value read?
The value was greater than 5 µM.

With B2 as the binder, how does the “hGLP1R cAMP Rel EC50” value read?
Its value is greater than 5 µM.

Which “hGLP1R cAMP Rel EC50” value does the source give for B3 here?
The value was greater than 5 µM.

With B4 as the binder, how does the “hGLP1R cAMP Rel EC50” value read?
Its value is greater than 0.1 µM.

B5 was tested. Which “hGLP1R cAMP Rel EC50” value did it give?
The value was greater than 5 µM.
